Laboratory results: publication PMC11771145 (Nature, 2024)

Target: the molecule itself
Experiment: cryo-EM, 2D class averages

B1: Vitiosangium bGSDM, engineered with a thrombin site and cleaved by thrombin (active N-terminal pore-forming domain) (domain or fragment, Vitiosangium sp. GDMCC 1.1324)
chain: SGLCSDPAITYLKRLGYNVVRLPREGIQPLHLLGQQRGTVEYLGSLEKLITQPPSEPPAITRDQAAAGINGQKTENLSFSIGINILKSVLAQFGAGAGIEAQYNQARKVRFEFSNVLADSVEPLAVGQFLKMAEVDADNPVLKQYVLGNGRLYVITQVIKSNEFTVAAEKSGGGSIQLDVPEIQKVVGGKLKVEASVSSQSTVTYKGEKQLVFGFKCFEIGVKNGEITLFASQLVPR
  stoichiometry N: 48 to 54 protomers
